{"source": "paper PMC7855293", "about": "(Nature structural & molecular biology, 2020)", "molecules": {"B1": {"name": "DRC4 (natural protein, Chlamydomonas reinhardtii, UniProt Q7XJ96 1-471, looked up)", "chain": "MAPKKKGTKKESKKDAVATGDIEGASVEELNQKIGTLEKEKNKEEEYRNYMQLERDKINAFWEITKKDLEDRRAELRNKDREMEEMEERHQVEIKVYKQKVKHLLYEHQNNITTLKSDGELALKLQQDEYRKREGDLGKDKRNLKLELKEQELAHQDIIRQLKLEHAKEITKLRQEFEQQAKDLQSKYEKKMKMLRDDMELRRKQEIHEIEERKNTHINELMKKHERAFAEIKNYYNDITHNNLDLIKTLKEDVAEMKRREAANEKLMYEIAQDNKKLSEPLSRALKEVELLRQQLANYDKDKLSLAQTKARLLNAERQIKNLEWENEVLSQRFSKVQTERDELYGKFEASIYDVQQKTGLKSALLEKKVEALGEALEMKEAQLAEVLTAANLDPGTLAAINQRLEEVLDNKNQIIKALQYDVAKVSKAHNDLIRVYEAKLTEFGIPVDELGFRPLVTNTSTGPAGLVVGA"}, "B2": {"name": "p28 (natural protein, Chlamydomonas reinhardtii, UniProt Q39604 1-253, looked up)", "chain": "MIPPLSSLVRYDNPVLVSTSKDKGKGAKGTPGKKGALPPVEQKPGLTQTEDILNSILPPREWTEDGQLWVQYVSSTPATRLDVINLQEKLDQQLQQRQARETGICPIREELYAQTFDELIRQVTINCAERGLLLLRVRDEMRMTIAAYQTLYESAVAFGIRKALQTEQGKSEMESRITQLEGDVKDLERQVQEWKFKCEAIEKRESERREVEAKKHKDEVAYLENYAKQLKQQLETFLVPAKKGAPGAPAAAT"}, "B3": {"name": "RSP9 (natural protein, Chlamydomonas reinhardtii, UniProt Q27YU5 1-269, looked up)", "chain": "MVQLEPNITLVLKHLASCGAVVSAEQQAALDHSIPIKRIEAGLRSLTLWGRLTTLNGKDYLVAEGYNVASSKEGAAVYETKYFYSQDGARWSDLQPVDSETATRCARIKGMLSGDPAKNYELEEKDPNAPEPSPEAEEEVKPLVFQIPELAVLRCRVDAIATATSVIPTDSTILNAASQVVPNRLFAGAAYPEKLESYQHRFSLPGSGVTLSQDLRGTWAVQYDAFKGVAQVRSLLFPGYFFYYAANELTWGSLYVGDGLRNNDLIFML"}}, "test_in_all_cases": "cryo-EM structure", "key": {"[1]": {"biological_target": "LC8 (RSP22) (Chlamydomonas reinhardtii)"}, "[2]": {"biological_target": "FAP385 (Chlamydomonas reinhardtii)"}, "[3]": {"biological_target": "RSP16 (Chlamydomonas reinhardtii)"}, "cryo-EM structure [4]": {"biological_target": "the molecule itself"}, "cryo-EM structure [5]": {"biological_target": "the molecule itself", "remark": "listed apart in the source"}}, "note": "Like-named read-outs stand apart in the source and are kept apart here.", "data": [{"molecule": "LC8 (RSP22) (natural protein)", "values": [{"measurement": "stoichiometry N", "setting": "[1]", "value": 2}]}, {"molecule": "FAP385 (natural protein)", "values": [{"measurement": "stoichiometry N", "setting": "[2]", "value": 2}]}, {"molecule": "RSP16 (natural protein)", "values": [{"measurement": "stoichiometry N", "setting": "[3]", "value": 2}]}, {"molecule": "B1", "values": [{"measurement": "stoichiometry N", "setting": "cryo-EM structure [4]", "value": 2}]}, {"molecule": "B2", "values": [{"measurement": "stoichiometry N", "setting": "cryo-EM structure [4]", "value": 2}]}, {"molecule": "B3", "values": [{"measurement": "stoichiometry N", "setting": "cryo-EM structure [5]", "value": 2}]}]}
